# Like-named read-outs stand apart in the source and are kept apart here. Oligonucleotides are written 5' to 3', each unit as a sugar letter and its base; * is a phosphorothioate linkage, no mark a phosphodiester; rarer units and linkages stand in square brackets, end groups in braces. Plain capitals give the bases only. r = 2'-OH (RNA); f = 2'-fluoro
# B1: AMX201.G9: rRfY aptamer clone (nucleic acid)
# chain: rGrGrArGfCrGfCrAfCfUfCrArGfCfCrAfCfUrArAfCrGrGfCfUrGrAfUfCfUfCrArGrGrAfCfUrArArAfUrArGfUfCrArAfCrArArGrGrAfUrGfCrGfUfUfUfCrGrAfCfCfUfCfUfCfUrGfCfUrArGfC
# B2: AMX198.A10: rRfY aptamer clone (nucleic acid)
# chain: rGrGrArGfCrGfCrAfCfUfCrArGfCfCrAfCfCrArGfUfUrAfUrGfCfUrGrGfCfUfUfUrGrGfUfCfUfUfUrGrAfCfUrGfUfCfUrGrArGfUrGfUfUfCrGfUfUfUfCrGrAfCfCfUfCfUfCfUrGfCfUrArGfC
# B3: AMX236.H2: DNA SELEX 2 aptamer clone (nucleic acid)
# chain: CTACCTACGATCTGACTAGCGTGCAGTGCCTATCCCAGGCCGTGCGGTAGCCTCCGTCACGCTTACTCTCATGTAGTTCC
# modifications: DNA, backbone not given here
# notes: DNA SELEX 2 aptamer clone
# B4: AMX237.C5: DNA SELEX 2 aptamer clone (nucleic acid)
# DNA: CTACCTACGATCTGACTAGCGTGCAGTGCCTATCTCAGGCCGTGCGGTATCCTCCGTCACGCTTACTCTCATGTAGTTCC
# modifications: DNA, backbone not given here
# notes: DNA SELEX 2 aptamer clone
# B5: AMX200.C11: DNA SELEX 1 aptamer clone (nucleic acid)
# DNA: CTACCTACGATCTGACTAGCGGAATGAGAGTGCTGATGGATTGCTCAGGTCTGCTGGCTGCTTACTCTCATGTAGTTCC
# modifications: DNA, backbone not given here
# notes: DNA SELEX 1 aptamer clone
# B6: AMX199.G10: DNA SELEX 1 aptamer clone (nucleic acid)
# DNA: CTACCTACGATCTGACTAGCGGAATGAGAATGTTGGTGGATTGCTCAGGTCTGCTGGCTGCTTACTCTCATGTAGTTCC
# modifications: DNA, backbone not given here
# notes: DNA SELEX 1 aptamer clone
# B7: AMX237.E10: DNA SELEX 2 aptamer clone (nucleic acid)
# DNA: CTACCTACGATCTGACTAGCGGAATGAGAATGCTGGTGGATTGCTCAGGTCTGCTGGCTGCTTACTCTCATGTAGTTCC
# modifications: DNA, backbone and methylation of C not given here
# notes: DNA SELEX 2 aptamer clone
# B8: AMX198.E5: rRfY aptamer clone (nucleic acid)
# chain: rGrGrArGfCrGfCrAfCfUfCrArGfCfCrAfCfUfUfCrGrAfCfUfUfUfCrAfUrGfUfCfUrGrArArGfUfCfCfCfUrGfCrArGfUrGfCrGrArGrArGrAfCrGfUfUfUfCrGrAfCfCfUfCfUfCfUrGfCfUrArGfC
# B9: AMX198.C6: rRfY aptamer clone (nucleic acid)
# chain: rGrGrArGfCrGfCrAfCfUfCrArGfCfCrAfCrGrGfUrGrGfUfCrArGfUfCrArGfUrGrAfUrAfUrGrAfUfUrArArGfUfUfCrArGfCfUrGfUrGrGfCfUrGfUfUfUfCrGrAfCfCfUfCfUfCfUrGfCfUrArGfC
# B10: AMX198.E11: rRfY aptamer clone (nucleic acid)
# chain: rGrGrArGfCrGfCrAfCfUfCrArGfCfCrAfCrGrGfUrArAfCrAfUfUrGfUfUfUfCfCrGrGfCrGrAfUfUfCfUfUfUrGrArAfCrGfCfCrGfUfCrGfUrGrGfUfUfUfCrGrAfCfCfUfCfUfCfUrGfCfUrArGfC
# B11: AMX236.B8: DNA SELEX 2 aptamer clone (nucleic acid)
# chain: CTACCTACGATCTGACTAGCTTGGTAGCGACTCTGTGGAGCTGCGGTCTGGTCGACGTCAGCTTACTCTCATGTAGTTCC
# modifications: DNA, backbone not given here
# notes: DNA SELEX 2 aptamer clone
# B12: AMX201.H1: rRfY aptamer clone (nucleic acid)
# chain: rGrGrArGfCrGfCrAfCfUfCrArGfCfCrAfCfUfUfUrAfCrGrGfUrGrArArArGfUfCfUfCfUfCrGrGrGrGfUfUfCfCrGrArGfUfUrAfCrGrGfUrGfCrGfUfUfUfCrGrAfCfCfUfCfUfCfUrGfCfUrArGfC
# B13: AMX198.C10: rRfY aptamer clone (nucleic acid)
# chain: rGrGrArGfCrGfCrAfCfUfCrArGfCfCrAfCfUrGrGfUfCfCfUfUrArGfCfUrArGfUfUrGfUrAfCfUrArGfCrGrAfCrGfCrGfUfUfCrArGrGfUrGrGfUfUfUfCrGrAfCfCfUfCfUfCfUrGfCfUrArGfC
# How the values were obtained:
# [1] = biological target: T1, human vWF A1 domain (SEQ ID NO 5) (Homo sapiens, UniProt P04275, T1381A); test: dot blot KD determination, human vWF A1 domain; conditions: for Human vWF A1 domain KD: DNA 1 minimers, 10 nM protein
# Method: For KD determination, aptamers transcripts were purified on 10% denaturing polyacrylamide gels, 5′ end labeled with γ-^32P ATP.
# For KD determination, aptamers were purified on denaturing polyacrylamide gels and 5′-end labeled with γ-^32P ATP. A 6 point protein titration of human vWF A1 domain (SEQ ID NO 5) was used in the dot blot assay (333 nM, 100 nM, 33 nM, 10 nM, 3 nM, 0 nM) in 1×DPBS plus 0.1 mg/mL BSA at room temperature for 30 minutes. KD values were calculated by fitting the equation y=(max/(1+K/protein))+yint using KaleidaGraph (KaleidaGraph v. 3.51, Synergy Software).
# KD values were calculated by fitting the equation y=(max/(1+K/protein))+yint using KaleidaGraph (KaleidaGraph v. 3.51, Synergy Software).
# All minimer sequences were transcribed, gel-purified on 15% denaturing polyacrylamide gels, 5-^32 end-labeled with γ^32P ATP, and then desalted using two Centri-Spin 10 columns (Princeton Separations Cat. #CS-101, Adelphia, N.J.). For KD determination, minimer transcripts were tested for direct binding to full length human vWF (SEQ ID NO 7), human vWF A1 domain (SEQ ID NO 5), and rabbit vWF A1 domain (SEQ ID NO 6) using an 8 point protein titration from 0-300 nM (3 fold dilutions) in 1× Dulbecco's PBS containing 0.1 mg/mL BSA (in a final volume of 50 uL) for 30 minutes at room temperature and then applied to a nitrocellulose and nylon filter sandwich in a dot blot apparatus (Schleicher and Schuell, Keene, N.H.). KD values were calculated by fitting the equation y=(max/(1+K/protein))+yint using KaleidaGraph (KaleidaGraph v. 3.51, Synergy Software).
# All minimer DNA sequences were chemically synthesized, 5-^32P end-labeled with γ-^32P ATP, and then desalted using two Centri-Spin 10 columns (Princeton Separations, Cat. #CS-101, Adelphia, N.J.). […] KD values were calculated by fitting the equation y=(max/(1+K/protein))+yint using KaleidaGraph (KaleidaGraph v. 3.51, Synergy Software).
# [2] = biological target: T1, human vWF A1 domain (SEQ ID NO 5); test: 3-point dot blot screen, human vWF A1 domain; type: binding; conditions: 100 nM human vWF A1 domain
# Excerpt: When a significant positive ratio of binding of RNA in the presence of human or rabbit vWF A1 domain versus in the absence of protein was seen, the pools were cloned using the TOPO TA cloning kit (Invitrogen, Cat. #45-0641, Carlsbad, Calif.) according to the manufacturer's instructions. Round 9 and 12 pool templates were cloned and sequenced (125 total sequences), producing 48 unique clones. All unique clones were transcribed, desalted, 5-^32P end-labeled, and assayed in a 3-point dot blot screen (no protein target control, 100 nM human vWF A1 domain (SEQ ID NO 5, FIG. 3), or 100 nM rabbit vWF A1 domain (SEQ ID NO 6, FIG. 3). The data is presented in the third and fourth columns of Table 4 below as the ratio of the fraction of the aptamer bound to the nitrocellulose in the presence of the target protein to the fraction of aptamer bound in the absence of the target protein.
# When a significant positive ratio of binding of RNA in the presence of human or rabbit vWF A1 domain (SEQ ID NOS 4 and 6, respectively) versus in the absence of protein was seen, the pools were cloned using the TOPO TA cloning kit (Invitrogen Cat. #45-0641, Carlsbad, Calif.) according to the manufacturer's instructions. Round 9 and 12 pool templates were cloned and sequenced (185 total sequences), producing 78 unique clones within 3 sequence families. All unique clones were transcribed, desalted, 5-^32P end-labeled, and assayed in a 3-point dot blot screen (no protein target control, 100 nM human vWF A1 domain (SEQ ID NO 5), or 100 nM rabbit vWF A1 domain (SEQ ID NO 6). The data are presented in the third and fourth columns of Table 9 below as the ratio of the fraction of the aptamer bound to the nitrocellulose in the presence of the target protein to the fraction of aptamer bound in the absence of the target protein. Of the three sequence families, members of Family #1 and #2 and two individual, non-family aptamers, bound to both human vWF domain A1 (SEQ ID NO 5) and rabbit vWF domain A1 (SEQ ID NO 6).
# All unique clones were assayed in a 3-point dot blot screen (no protein target control, 100 nM human vWF A1 domain (SEQ ID NO 5), or 100 nM rabbit vWF A1 domain (SEQ ID NO 6). The data are presented in the third and fourth columns of Table 14 below as the ratio of the fraction of the aptamer bound to the nitrocellulose in the presence of the target protein to the fraction of aptamer bound in the absence of the target protein.
# [3] = system: rabbit vWF A1 domain (SEQ ID NO 6); test: 3-point dot blot screen, rabbit vWF A1 domain; type: binding; conditions: for Screen- Rabbit/No Protein: 100 nM rabbit vWF A1 domain, ratio of fraction bound with target to without; for Screen Rabbit/No Protein: 3-point dot blot screen, 20 nM rabbit vWF A1 domain, ratio of fraction of aptamer bound with target protein to fraction bound without protein
# How it was run: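 Rabbit vWF A1 domain binding was screened by dot blot using three conditions: no target protein, human vWF, and rabbit vWF A1 domain at 100 nM (20 nM in the screen run twice). Radiolabeled aptamer bound to nitrocellulose was quantified, and results are expressed as the ratio of bound fraction with protein to bound fraction without protein.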
# full length human vWF = test: 3-point dot blot screen, full length human vWF; type: binding; conditions: 20 nM full length human vWF, ratio of fraction of aptamer bound with target protein to fraction bound without protein
# How it was run: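 Unique aptamer clones tested twice by nitrocellulose dot blot with no protein, 20 nM full-length human vWF or 20 nM rabbit vWF A1 domain. Value is fraction of aptamer bound with target divided by fraction bound without protein.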
# [4] = system: full length human vWF binding to lyophilized platelets; test: Full length human von Willebrand Factor platelet binding assay (FACS); type: cell-based; conditions: 5 nM full length human vWF, lyophilized platelets, botrocetin; both bounds in nM
# Method: The amount of vWF bound to fixed platelets can be measured with an antibody to vWF. The fluorescence signal from bound antibody incubated with a fluorescein conjugated secondary antibody is then detected and quantified by flow cytometry. The ability of an aptamer of the invention to block vWF binding to platelets is correlated with a reduction in fluorescence signal.
# Aptamer potency to block human vWF binding to lyophilized platelets was assessed by flow cytometric analysis. Titrations of aptamers (0 nM, 0.1 nM to 1000 nM) were pre-incubated briefly with 5 nM of full length human vWF in FACS buffer (PBS plus 0.5% bovine serum albumin) at room temperature in a volume of 50 uL. Another 50 uL containing 5 uL of lyophilized platelets plus 1 uL of 0.1 U/uL of botrocetin in FACS buffer was added to aptamer/vWF. This reaction was allowed to proceed for 15 minutes at 37 degrees C. after which 200 uL of FACS buffer was added. Platelets were collected by a 6 minute spin at 1470 RCF and the supernatant was discarded. The pellets were resuspended in 100 uL of FACS buffer containing a 1:100 dilution of anti-vWF antibody and were incubated at room temperature for 30 minutes. After dilution with 200 uL of FACS buffer, the platelets were spun at 1470 RCF for 6 minutes and the supernatant was discarded. The pellets were resuspended in a 1:100 solution of anti-IgG2a-FITC antibody and were incubated in the dark for 30 minutes at room temperature. The entire 100 uL was diluted into 200 uL of FACS buffer and analyzed immediately by flow cytometric analysis in the FACSCAN. Artifactual data from contaminating debris was eliminated from the analysis by drawing a gate around the population of single and aggregated platelets. Mean fluorescent intensity (“MFI”) readings were quantified for each sample analyzed by flow cytometry. Background MFI was subtracted from all data points. Percent inhibition was reported by calculating the percent value of binding of full length human vWF to platelets in the presence of aptamer at a given concentration relative to binding in the absence of any aptamer (see FIG. 7). IC50 values were determined by fitting the percent inhibition of vWF binding to platelets as a function of aptamer concentration to the equation: % inhibition=% inhibitionmax/(1+IC50/aptamer conc.)
# [5] = rRfY aptamers, ratio of fraction bound with target to fraction bound without target
# [6] = read-out: human A1 KD, rRfY aptamers, 8 point titration of human vWF A1 domain
# [7] = DNA SELEX 1 aptamers, ratio of fraction bound with target to without
# [8] = read-out: Human A1 KD, DNA SELEX 1 aptamers, competition dot blot, 100 nM protein, cold competitor titration
# Chain of rabbit vWF A1 domain (SEQ ID NO 6) (as listed by the source): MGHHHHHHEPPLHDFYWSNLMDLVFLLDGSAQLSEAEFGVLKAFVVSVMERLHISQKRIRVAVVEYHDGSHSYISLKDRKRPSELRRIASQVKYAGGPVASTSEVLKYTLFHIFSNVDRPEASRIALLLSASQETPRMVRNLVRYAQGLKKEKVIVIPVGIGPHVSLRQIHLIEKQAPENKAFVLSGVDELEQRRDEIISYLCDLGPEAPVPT
# T1 sequence (P04275 with tags, fused parts or gaps T1381A): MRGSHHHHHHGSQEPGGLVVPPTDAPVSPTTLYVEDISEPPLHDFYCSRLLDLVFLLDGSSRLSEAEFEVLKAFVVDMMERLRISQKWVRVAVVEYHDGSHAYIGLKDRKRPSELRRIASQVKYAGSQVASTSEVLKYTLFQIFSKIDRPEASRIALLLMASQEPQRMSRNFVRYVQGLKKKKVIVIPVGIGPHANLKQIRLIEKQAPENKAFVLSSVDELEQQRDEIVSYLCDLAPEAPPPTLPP
Molecule,"Screen- Human/No Protein [2, 5]",Screen- Rabbit/No Protein ([3]; rRfY aptamers),"Kd [1, 6] [nM]",further results
"CGATCTGACTAGCGGAATGAGAATGCTGGTGGATCG (DNA, backbone not given here) [SEQ ID NO 206]",–,–,–,Human vWF A1 domain KD ([1]; competition dot blot): No binding
"GATCTGACTAGCGCAATGAGGATGCdTGATGGATTGCTCAGGTC (GATCTGACTAGCGCAATGAGGATGCDTGATGGATTGCTCAGGTC; DNA, backbone and the base at N not given here) [SEQ ID NO 207]",–,–,–,Human vWF A1 domain KD ([1]; competition dot blot): No binding
B1,2.06,2.11,182,–
B2,1.26,5.74,1860,–
B3,–,–,–,Screen Rabbit/No Protein [3]: 2.06; Screen- Human/No Protein (full length human vWF): 2.12
B4,–,–,–,Screen Rabbit/No Protein [3]: 2.36; Screen- Human/No Protein (full length human vWF): 2.55
B5,–,–,–,"Screen- Human/No Protein [2, 7]: 6.00; Screen- Rabbit/No Protein ([3]; DNA SELEX 1 aptamers): 3.64; Kd [1, 8]: 26 nM"
B6,–,–,–,"Screen- Human/No Protein [2, 7]: 4.97; Screen- Rabbit/No Protein ([3]; DNA SELEX 1 aptamers): 2.66; Kd [1, 8]: 22 nM"
B7,–,–,–,"Screen Rabbit/No Protein [3]: 6.04; Screen- Human/No Protein (full length human vWF): 1.12; Inhibition of full length hVWF binding in FACS assay, IC50 range [4]: no activity"
B8,1.60,1.56,172,–
B9,3.03,4.62,249,–
B10,1.03,2.37,1060,–
B11,–,–,–,Screen Rabbit/No Protein [3]: 1.88; Screen- Human/No Protein (full length human vWF): 1.66
B12,2.61,2.46,189,–
B13,1.40,3.39,555,–
